Data on one substance can be found in PMC3610906.

This experiment has as its target microtubules in LLCPK cells (pig (endogenous in LLCPK)) (UniProt P02550). Put plainly: FRAP; living LLCPK cells expressing GFP-tau, 37°C; fluorescence recovery integrated along line scans on single photobleached microtubules; half time from a first-order rate constant (t1/2 = ln2/k).
Sequence of UniProt P02550 (P02550 whole entry, chain 1 of 2): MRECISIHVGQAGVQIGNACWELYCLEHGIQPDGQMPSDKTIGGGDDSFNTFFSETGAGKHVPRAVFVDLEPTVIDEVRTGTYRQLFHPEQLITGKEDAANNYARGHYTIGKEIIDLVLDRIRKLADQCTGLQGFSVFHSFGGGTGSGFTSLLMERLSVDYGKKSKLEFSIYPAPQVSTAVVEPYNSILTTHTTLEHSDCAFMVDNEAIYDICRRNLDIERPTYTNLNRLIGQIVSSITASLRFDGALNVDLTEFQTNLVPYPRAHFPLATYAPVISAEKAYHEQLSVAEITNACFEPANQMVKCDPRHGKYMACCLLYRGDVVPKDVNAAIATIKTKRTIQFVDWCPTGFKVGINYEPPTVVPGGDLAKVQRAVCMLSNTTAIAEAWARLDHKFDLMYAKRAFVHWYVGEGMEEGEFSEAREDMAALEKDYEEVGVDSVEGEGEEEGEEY
Sequence of UniProt P02550 (Q767L7 whole entry, chain 2 of 2, further chain): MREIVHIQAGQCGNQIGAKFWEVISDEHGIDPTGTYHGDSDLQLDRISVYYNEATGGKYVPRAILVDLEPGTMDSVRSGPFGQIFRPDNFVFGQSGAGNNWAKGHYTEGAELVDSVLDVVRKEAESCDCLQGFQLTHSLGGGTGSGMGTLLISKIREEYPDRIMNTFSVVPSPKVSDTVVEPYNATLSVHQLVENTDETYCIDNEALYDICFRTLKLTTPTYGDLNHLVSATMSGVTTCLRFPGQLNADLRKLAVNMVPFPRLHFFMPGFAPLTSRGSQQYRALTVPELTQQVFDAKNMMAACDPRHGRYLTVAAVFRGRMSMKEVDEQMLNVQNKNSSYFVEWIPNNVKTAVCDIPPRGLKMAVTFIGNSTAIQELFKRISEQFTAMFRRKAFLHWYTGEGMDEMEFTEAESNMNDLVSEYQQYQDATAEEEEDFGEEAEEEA

With “GFP-tau (isoform with three microtubule-binding repeats) (natural protein)”, the half time of fluorescence recovery on microtubules amounted to 6.8 s.
